# Assay results taken from patent US20030049625, “Rapid and sensitive proximity-based assay for the detection and quantification of DNA binding proteins” (Saint Louis University, published 2003).
# B1: P1/P4 + P2/P3 (dsDNA)
# DNA 1: GCATCGGTCACAGACA
# DNA 2: TGTCTAGGCATGTCTGTGACCGATGC
# DNA 3: TGCCTAGACATGCCTTGCAGTCTCGA
# DNA 4: TCGAGACTGCAAGGCA
# modifications: [strand 2: T5 (N, modified T); strand 3: T5 (N, modified T)]
# B2: NSP1 duplex (dsDNA)
# DNA 1: GCATCGGTCACTGCAGTCTCGACAGCTACG
# DNA 2: CGTAGCTGTCGAGACTGCAGTGACCGATGC
# B3: CAP6/CAP1 + CAP2/CAP3 (dsDNA)
# DNA 1: TCTACTTCACATTTATTGCGTT
# DNA 2: AACGCAATAAATGTGA
# DNA 3: AGTAGATCACATTTTAGGCACC
# DNA 4: GGTGCCTAAAATGTGA
# modifications: [strand 1: T3 (N, modified T); strand 3: T3 (N, modified T)]
# B4: TRP1/TRP4 + TRP2/TRP3 (dsDNA)
# DNA 1: GAGATCTATCGAACTA
# DNA 2: GTTTACTAGTTCGATAGATCTC
# DNA 3: GTAAACTAGTACGAAACTAGAG
# DNA 4: CTCTAGTTTCGTACTA
# modifications: [strand 2: T2 (N, modified T); strand 3: T2 (N, modified T)]
# B5: LAC1/LAC4 + LAC2/LAC3 (dsDNA)
# DNA 1: GGTGTGTGGAATTGTGA
# DNA 2: ATACGCTCACAATTCCACACACC
# DNA 3: GCGTATAACAATTTCACACAGG
# DNA 4: CTTGTGTGAAATTGTT
# modifications: [strand 2: T2 (N, modified T); strand 3: T4 (N, modified T)]
# B6: SP1 duplex (dsDNA)
# DNA 1: CCTAAAATGTGATCTAGATCACATTTATTG
# DNA 2: CAATAAATGTGATCTAGATCACATTTTAGG
# B7: CAP5/CAP3 + CAP4/CAP1 (dsDNA)
# DNA 1: AGTAGATCACATTTTAGGCACC
# DNA 2: GGTGCCTAAAATGTGA
# DNA 3: TCTACTTCACATTTATTGCGTT
# DNA 4: AACGCAATAAATGTGA
# modifications: [strand 1: T3 (N, modified T); strand 3: T3 (N, modified T)]
# B8: CAP1/CAP4 + CAP2/CAP3 (dsDNA)
# DNA 1: AACGCAATAAATGTGA
# DNA 2: TCTACTTCACATTTATTGCGTT
# DNA 3: AGTAGATCACATTTTAGGCACC
# DNA 4: GGTGCCTAAAATGTGA
# modifications: [strand 2: T3 (N, modified T); strand 3: T3 (N, modified T)]
# What was measured:
# p53 = p53 (Homo sapiens, UniProt P04637 P04637:1-393); assay: FRET; 0-130 nM p53, quenching proportional to p53, 50 mM NaCl, 100 nM nonspecific 30-bp DNA, 25 C; settings: tags: full-length, expressed in bacteria (gift of K. S. Matthews); chain copies: 4; label: dT-fluorescein (P2), dT-dabcyl (P4); two half-site duplexes with short complementary overhangs
# p53, sequence (P04637 whole entry, one chain of several): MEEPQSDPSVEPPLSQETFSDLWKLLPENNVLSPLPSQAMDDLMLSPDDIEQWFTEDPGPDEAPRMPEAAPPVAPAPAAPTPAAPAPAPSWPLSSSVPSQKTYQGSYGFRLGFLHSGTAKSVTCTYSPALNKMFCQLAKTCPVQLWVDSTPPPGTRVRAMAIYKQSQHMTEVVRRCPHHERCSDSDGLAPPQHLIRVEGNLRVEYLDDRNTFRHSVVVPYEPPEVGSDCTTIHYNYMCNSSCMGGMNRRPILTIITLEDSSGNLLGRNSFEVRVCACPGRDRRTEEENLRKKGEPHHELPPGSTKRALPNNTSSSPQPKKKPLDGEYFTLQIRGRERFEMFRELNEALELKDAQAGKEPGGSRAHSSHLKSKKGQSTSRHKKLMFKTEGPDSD
# Procedure: The oligonucleotides were purified using reverse phase chromatography on a RPC column as described previously (Heyduk, E., and Heyduk, supra). The fractions containing the oligonucleotides were dried in Vacuum centrifuge concentrator and were dissolved in 50 μl of water. The concentrations of the stock solutions of oligonucleotides were determined by recording the UV-VIS absorption spectrum of a small aliquot of the stock solution diluted to 400 μl. The P1 oligonucleotide (SEQ ID NO:20) was hybridized with the P4 oligonudeotide (SEQ ID NO:23) to generate the P1/P4 duplex construct and the P2 oligonucleotide (SEQ ID NO:21) was hybridized with the P3 (SEQ ID NO:22) oligonucleotide to generate the P2/P3 duplex construct. For the hybridization, the appropriate oligonucleotides were mixed at 10 μM concentration in 100 μl of 50 mM Tris/HCl (pH 8.0), 100 mM NaCl, 1 mM EDTA, heated for 1 min at 95° C. and then cooled to 25° C. for 1 hr. All subsequent fluorescence measurements were performed at 25° C. in 50-mM potassium phosphate (pH 7.5), 50 mM NaCl, and 0.5 mg/ml BSA containing also 100 nM of a nonspecific 30-bp DNA duplex. The DNA duplexes obtained upon hybridization are illustrated in FIG. 18. The duplexes contain a repeat of 10 bp PuPuPuC(A/T)(T/A)GPyPyPy (SEQ ID NO:24) motif split between the two DNA duplexes. […]
# [1] = target: T1, CAP (cAMP receptor protein) (Escherichia coli, UniProt P0ACJ8 P0ACJ8:2-210); assay: competition; no effect up to 194.2 nM; 200 uM cAMP, 50 mM NaCl; settings: chain copies: 2
# T1 sequence (P0ACJ8 2-210, one chain of several): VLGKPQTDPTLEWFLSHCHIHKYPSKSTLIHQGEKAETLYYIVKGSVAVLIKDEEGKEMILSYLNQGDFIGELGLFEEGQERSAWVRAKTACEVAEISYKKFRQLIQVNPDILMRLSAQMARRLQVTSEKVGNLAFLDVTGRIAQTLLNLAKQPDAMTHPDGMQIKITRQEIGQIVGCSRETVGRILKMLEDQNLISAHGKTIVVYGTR
# From the text: (§1) The fluorescence donor (fluorescein) and the fluorescence acceptor (dabcyl) were introduced into DNA fragments using commercially available dT-fluorescein and dT-dabcyl (Glen Research, Sterling, Va.), wherein dT stands fordeoxythymidine. The oligonucleotides were purified using reverse phase chromatography on a RPC column (Pharmacia) as previously described (Heyduk, E., and Heyduk, T. Anal. Biochem. 248, 216-227, 1997). The fractions containing the oligonucleotides were dried in a vacuum centrifuge concentrator and subsequently dissolved in 50 μl of water. The concentration of the stock solutions of oligonucleotides was determined by recording the UV-VIS absorption spectrum of a small aliquot of the stock solution diluted to 400 μl. The CAP1 oligonucleotide (SEQ ID NO:1) was hybridized with CAP4 oligonucleotide (SEQ ID NO:4) to generate the CAP1/CAP4 duplex and CAP2 oligonucleotide (SEQ ID NO:2) was hybridized with CAP3 oligonucleotide (SEQ ID NO:3) to generate the CAP2/CAP3 duplex. […] All subsequent fluorescence measurements were performed at 25° C. in 50-mM Tris/HCl (pH 8.0), 100 mM NaCl (or 50 mM NaCl where indicated), 1 mM EDTA, 0.1 mg/ml BSA, and 200 μM cAMP in 200 μl quartz cuvette using Aminco-Bowman Series 2 spectrofluorometer. The excitation wavelength was at 490 nm and the emission was recorded from 500 to 650 nm. […]
# [2] = target: T1, CAP (cAMP receptor protein); assay: ratiometric FRET; 0-150 nM CAP, 200 uM cAMP, 25 C; settings: chain copies: 2; label: 7-diethylaminocoumarin-3-carboxylic acid on amino-dT (CAP6), dT-fluorescein (CAP2); two half-site duplexes with short complementary overhangs
# Procedure: In a second experiment (FIG. 9), the pair of CAP6/CAP1 and CAP2/CAP3 nucleic acid duplexes were tested for the performance in CAP assay. In this assay format, the 7-diethylaminocoumarin-3-carboxylic acid present in the CAP6/CAP1 duplex functioned as a fluorescence donor and the fluorescein present in the CAP2/CAP3 duplex functioned as an acceptor. In this case, both the donor as well as the acceptor are fluorescent. The experiment was performed at 25° C. in 50 mM Tris/HCl (pH 8.0), 100 mM NaCl, 1 mM EDTA, 0.1 mg/ml BSA, and 200 μM cAMP. […] The shoulder observed at about 520 nm is due to the residual emission of fluorescein, which is also to a small extent excited at 433 nm. Upon addition of varying amounts of CAP in a range from 0 to 150 nM (curves 2 -9), a pronounced quenching of the peak at 475 nm and a pronounced enhancement of the peak at 520 nm is observed. Recall that the emission maximum of fluorescein is 520 nm. […] Also, as shown in the inset of FIG. 9, the ratio between the fluorescence intensities at 520 nm and 475 nm may be used to determine the concentration of DNA binding proteins. This ratiometric mode of signal detection could be particularly useful since it would be less prone to trivial errors (such as pipetting errors, general quenching by some unrelated compounds present in the assayed sample).
# [3] = target: T1, CAP (cAMP receptor protein); assay: FRET; two-color assay, CAP only, no change in fluorescein signal; 200 uM cAMP; settings: chain copies: 2; label: dT-fluorescein (TRP2), dT-dabcyl (TRP4); two half-site duplexes with short complementary overhangs
# Procedure: Nucleic acid constructs specific for each of the proteins to be detected may be labeled with probes that emit light at different wavelengths. In this example, the reaction mixture contained nucleic acid constructs labeled with 7-diethylaminocoumarin-3-carboxylic acid for detecting CAP protein (described in EXAMPLE 2) and nucleic acid constructs labeled with fluorescein for detecting TrpR protein (described in EXAMPLE 6). Specifically, 100 nM CAP5/CAP3, 120 nM CAP1/CAP4, 100 nM TRP2/TRP3, and 120 nM TRP1/TRP4 duplexes were present in the reaction mixture.
# All measurements were performed at 15° C. in 10 mM potassium phosphate (pH 7.6), 50 mM NaCl, 0.1 mM EDTA, 4 mM tryptophan, 200 μM cAMP, 10% glycerol, 0.01% sodium azide and 1.0 mg/ml BSA. The fluorescence spectra with the excitation at 433 nm (excitation of 7-diethylaminocoumarin-3-carboxylic acid, FIG. 17A) and with the excitation at 490 nm (excitation of fluorescein, FIG. 17B) were recorded in the absence of the proteins (curves 1), in the presence of CAP only (curves 2), in the presence of TrpR only (curves 3), and in the presence of both CAP and TrpR (curves 4). In the presence of only CAP there was no change in the fluorescein signal (FIG. 17B, curve 2) whereas about 60% quenching of the 7-diethylaminocoumarin-3-carboxylic acid signal was observed (FIG. 17A, curve 2). […]
# Trp repressor (TrpR) [4] = target: T2, Trp repressor (TrpR) (UniProt P0A881 P0A881:2-108); assay: FRET; specificity control
# Lac repressor (LacR) = Lac repressor (LacR) (UniProt P03023 P03023:1-360); assay: FRET; 0-200 nM LacR, saturation ~150 nM, 50 nM DNA, 25 C; specificity confirmed with 5 mM IPTG; settings: chain copies: 4; label: dT-fluorescein (LAC2), dT-dabcyl (LAC4); two half-site duplexes with short complementary overhangs
# Lac repressor (LacR), sequence (P03023 whole entry, one chain of several): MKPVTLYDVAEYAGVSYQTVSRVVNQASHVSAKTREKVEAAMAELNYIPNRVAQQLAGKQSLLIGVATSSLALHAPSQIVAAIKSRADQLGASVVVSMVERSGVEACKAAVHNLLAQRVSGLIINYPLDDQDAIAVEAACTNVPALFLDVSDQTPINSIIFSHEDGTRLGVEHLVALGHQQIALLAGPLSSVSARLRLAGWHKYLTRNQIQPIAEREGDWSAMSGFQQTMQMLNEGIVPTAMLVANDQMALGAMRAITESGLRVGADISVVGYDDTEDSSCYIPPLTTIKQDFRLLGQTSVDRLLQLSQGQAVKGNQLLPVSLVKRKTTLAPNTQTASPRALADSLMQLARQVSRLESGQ
# Procedure: The oligonucleotides were purified using reverse phase chromatography on RPC column (Amersham Pharmacia Biotech, Piscataway, N.J.) as previously described (Heyduk, E., and Heyduk, T. Anal. Biochem. 248, 216-227, 1997). The fractions containing the oligonucleotides were dried in Vacuum centrifuge concentrator and were dissolved in 50 μl of water. The concentration of the stock solutions of oligonucleotides was determined by recording the UV-VIS absorption spectrum of a small aliquot of the stock solution diluted to 400 μl. The LAC1 oligonucleotide (SEQ ID NO:12) was hybridized with the LAC4 oligonucleotide (SEQ ID NO:15) to generate the LAC1/LAC4 construct and the LAC2 oligonucleotide (SEQ ID NO:13) was hybridized with the LAC3 oligonucleotide (SEQ ID NO:14) to generate the LAC2/LAC3 construct. […] All subsequent fluorescence measurements were performed at 25° C. in 50 mM Tris/HCl (pH 8.0), 100 mM NaCl, 1 mM EDTA, and 0.1 mg/ml BSA. […]
# The fluorescence spectra of 50 nM of LAC1/LAC4 plus LAC2/LAC3 were recorded in the absence of LacR (FIG. 14, curve 1) and in the presence of varying amounts of LacR in a range from 0-200 nM (FIG. 14, curves 2-7). Fluorescence signal quenching was proportional to the amount of LacR added to the reaction mixture, with saturation occurring at approximately 150 nM of LacR (FIG. 14, inset). […]
# [5] = target: T1, CAP (cAMP receptor protein); assay: competition; unlabeled duplex blocks CAP detection; 200 uM cAMP, 50 mM NaCl; settings: chain copies: 2
# From the text: as §1
# Trp repressor (TrpR) [6] = target: T2, Trp repressor (TrpR); assay: FRET; two-color assay, TrpR only, no change in coumarin signal; 15 C
# Trp repressor (TrpR) [7] = target: T2, Trp repressor (TrpR); assay: FRET; 400 nM TrpR, no change
binder,measurement,setting,value
B1,binding result,p53,binds
B2,binding result,[1],no binding
B3,binding result,[2],binds
B4,binding result,[3],no binding
B5,binding result,Trp repressor (TrpR) [4],no binding
same,binding result,Lac repressor (LacR),binds
B6,binding result,[5],binds
B7,binding result,Trp repressor (TrpR) [6],no binding
B8,binding result,Trp repressor (TrpR) [7],no binding
